# ± gives the standard deviation of the averaged measurements.
# Test: total protein half-life in vivo (active degradation + dilution); higher = more stable protein
# [1] = wild type E. coli NCM3722, growth: P-lim chemostat, doubling time 6 h
# [2] = wild type E. coli NCM3722, growth: P-lim chemostat, doubling time 12 h
# [3] = E. coli NCM3722 delta-clpP delta-lon delta-hslV, growth: N-lim chemostat, doubling time 6 h
# [4] = E. coli NCM3722 delta-clpP, growth: N-lim chemostat, doubling time 6 h
# [5] = E. coli NCM3722 delta-hslV, growth: N-lim chemostat, doubling time 6 h
# [6] = E. coli NCM3722 delta-lon, growth: N-lim chemostat, doubling time 6 h
# [7] = E. coli NCM3722 delta-smpB, growth: N-lim chemostat, doubling time 6 h
# [8] = wild type E. coli NCM3722, growth: C-lim chemostat, doubling time 3 h
# [9] = wild type E. coli NCM3722, growth: C-lim chemostat, doubling time 6 h
# [10] = wild type E. coli NCM3722, growth: C-lim chemostat, doubling time 12 h
# [11] = wild type E. coli NCM3722, growth: N-lim chemostat, doubling time 6 h
# [12] = wild type E. coli NCM3722, growth: N-lim chemostat, doubling time 12 h
Sequence,total protein half-life in vivo [1] [h],total protein half-life in vivo [2] [h],total protein half-life in vivo [3] [h],total protein half-life in vivo [4] [h],total protein half-life in vivo [5] [h],total protein half-life in vivo [6] [h],total protein half-life in vivo [7] [h],total protein half-life in vivo [8] [h],total protein half-life in vivo [9] [h],total protein half-life in vivo [10] [h],total protein half-life in vivo [11] [h],total protein half-life in vivo [12] [h]
MAASTFFIPSVNVIGADSLTDAMNMMADYGFTRTLIVTDNMLTKLGMAGDVQKALEERNIFSVIYDGTQPNPTTENVAAGLKLLKENNCDSVISLGGGSPHDCAKGIALVAANGGDIRDYEGVDRSAKPQLPMIAINTTAGTASEMTRFCIITDEARHIKMAIVDKHVTPLLSVNDSSLMIGMPKSLTAATGMDALTHAIEAYVSIAATPITDACALKAVTMIAENLPLAVEDGSNAKAREAMAYAQFLAGMAFNNASLGYVHAMAHQLGGFYNLPHGVCNAVLLPHVQVFNSKVAAARLRDCAAAMGVNVTGKNDAEGAEACINAIRELAKKVDIPAGLRDLNVKEEDFAVLATNALKDACGFTNPIQATHEEIVAIYRAAM,4.98,9.25 ± 2.1,–,–,–,–,–,–,–,–,–,–
MSIEIANIKKSFGRTQVLNDISLDIPSGQMVALLGPSGSGKTTLLRIIAGLEHQTSGHIRFHGTDVSRLHARDRKVGFVFQHYALFRHMTVFDNIAFGLTVLPRRERPNAAAIKAKVTKLLEMVQLAHLADRYPAQLSGGQKQRVALARALAVEPQILLLDEPFGALDAQVRKELRRWLRQLHEELKFTSVFVTHDQEEATEVADRVVVMSQGNIEQADAPDQVWREPATRFVLEFMGEVNRLQGTIRGGQFHVGAHRWPLGYTPAYQGPVDLFLRPWEVDISRRTSLDSPLPVQVLEASPKGHYTQLVVQPLGWYNEPLTVVMHGDDAPQRGERLFVGLQHARLYNGDERIETRDEELALAQSA,2.65 ± 0.42,4.77 ± 0.37,6.63 ± 1.7,5.04 ± 1.5,2.09 ± 0.0062,2.01 ± 0.088,2.01 ± 0.032,2.4 ± 1.4,3.58 ± 2.8,2.68 ± 0.037,2.08 ± 0.11,2.85 ± 0.09
MKILVTGGAGFIGSAVVRHIINNTQDSVVNVDKLTYAGNRESLADVSDSERYVFEHADICDAPAMARIFAQHQPDAVMHLAAESHVDRSITGPAAFIETNIVGTYVLLEAARNYWSALDSDKKNSFRFHHISTDEVYGDLPHPDEVNNTEELPLFTETTAYAPSSPYSASKASSDHLVRAWKRTYGLPTIVTNCSNNYGPYHFPEKLIPLVILNALEGKALPIYGKGDQIRDWLYVEDHARALYTVVTEGKAGETYNIGGHNEKKNIDVVLTICDLLDEIVPKEKSYREQITYVADRPGHDRRYAIDAEKIGRALGWKPQETFESGIRKTVEWYLSNTKWVDNVKSGAYQSWIEQNYEGRQ,7.66,–,5.58,–,5.31,–,–,–,–,–,5.85,–
MQLTSFTDYGLRALIYMASLPEGRMTSISEVTDVYGVSRNHMVKIINQLSRAGYVTAVRGKNGGIRLGKPASAIRIGDVVRELEPLSLVNCSSEFCHITPACRLKQALSKAVQSFLTELDNYTLADLVEENQPLYKLLLVE [P0AF63],4.03 ± 0.2,6.22 ± 0.65,7.13 ± 1.1,6.69 ± 0.15,5.44 ± 0.07,5.26 ± 0.19,5.26 ± 0.17,2.93 ± 0.15,6.31 ± 1.1,8.91 ± 0.3,5.12 ± 0.58,10.2 ± 0.44
MKAKAILLASVLLVGCQSTGNVQQHAQSLSAAGQGEAAKFTSQARWMDDGTSIAPDGDLWAFIGDELKMGIPENDRIREQKQKYLRNKSYLHDVTLRAEPYMYWIAGQVKKRNMPMELVLLPIVESAFDPHATSGANAAGIWQIIPSTGRNYGLKQTRNYDARRDVVASTTAALNMMQRLNKMFDGDWLLTVAAYNSGEGRVMKAIKTNKARGKSTDFWSLPLPQETKQYVPKMLALSDILKNSKRYGVRLPTTDESRALARVHLSSPVEMAKVADMAGISVSKLKTFNAGVKGSTLGASGPQYVMVPKKHADQLRESLASGEIAAVQSTLVADNTPLNSRVYTVRSGDTLSSIASRLGVSTKDLQQWNKLRGSKLKPGQSLTIGAGSSAQRLANNSDSITYRVRKGDSLSSIAKRHGVNIKDVMRWNSDTANLQPGDKLTLFVKNNNMPDS [P0AEZ7],–,–,3.87 ± 0.74,–,–,–,–,–,–,–,–,–
MSEQFLYFLQQMFNGVTLGSTYALIAIGYTMVYGIIGMINFAHGEVYMIGSYVSFMIIAALMMMGIDTGWLLVAAGFVGAIVIASAYGWSIERVAYRPVRNSKRLIALISAIGMSIFLQNYVSLTEGSRDVALPSLFNGQWVVGHSENFSASITTMQAVIWIVTFLAMLALTIFIRYSRMGRACRACAEDLKMASLLGINTDRVIALTFVIGAAMAAVAGVLLGQFYGVINPYIGFMAGMKAFTAAVLGGIGSIPGAMIGGLILGIAEALSSAYLSTEYKDVVSFALLILVLLVMPTGILGRPEVEKV [P0AEX7],–,> 16,6.2,–,> 8,–,6.44 ± 0.19,2.75 ± 0.53,–,–,> 8,–
MELLVLVWRQYRWPFISVMALSLASAALGIGLIAFINQRLIETADTSLLVLPEFLGLLLLLMAVTLGSQLALTTLGHHFVYRLRSEFIKRILDTHVERIEQLGSASLLAGLTSDVRNITIAFVRLPELVQGIILTIGSAAYLWMLSGKMLLVTAIWMAITIWGGFVLVARVYKHMATLRETEDKLYTDFQTVLEGRKELTLNRERAEYVFNNLYIPDAQEYRHHIIRADTFHLSAVNWSNIMMLGAIGLVFWMANSLGWADTNVAATYSLTLLFLRTPLLSAVGALPTLLTAQVAFNKLNKFALAPFKAEFPRPQAFPNWQTLELRNVTFAYQDNAFSVGPINLTIKRGELLFLIGGNGSGKSTLAMLLTGLYQPQSGEILLDGKPVSGEQPEDYRKLFSAVFTDVWLFDQLLGPEGKPANPQLVEKWLAQLKMAHKLELSNGRIVNLKLSKGQKKRVALLLALAEERDIILLDEWAADQDPHFRREFYQVLLPLMQEMGKTIFAISHDDHYFIHADRLLEMRNGQLSELTGEERDAASRDAVARTA,–,6.15,–,5.55 ± 0.68,2.75,–,3.49 ± 2.1,3.11 ± 0.83,–,8.87,3.39,6.04

# Source: the supplement of paper PMC11246515
